Here are results for nine molecules from US20240166738A1 (Alector, published 2024).

Changes are numbered by the printed parent chain.

Sequences and labels used below:
B1: TM-88 (antibody, V domains shown)
VH: EAQLQQSGPVLVKPGASVKMSCKTSGYTFTDYYINWVKQSHGKSLEWIGVINPYSGATYYTQKFKGKATLTVDKSSSTAYMELNSQTSEDSAVYYCARGGYDYGHWYFDVWGTGTTVTVSS
VL: ETTVTQSPASLSMAIGEKVTIRCITSSDIDDHMNWYRQKPGEPPEFLISEGNALRPGVPSRFSSSGYGTDFIFTIENILSEDVADYYCLQSDNLPLTFGAGTKLELK
B2: TM-15 (antibody, V domains shown)
VH: QVQLQQPGAEFVRPGASVKLSCKASGYTFTNYWITWVKQRPGHGLEWIGDIYPGSGNSNYNESFKRKATLTVDTSSSTAYMHLSSQTSEDSAVYFCARKAYGGFPYWGQGTLVTVSA
VL: DIQMTQSPASLSVSVGETVTITCRVSENIYNNLAWYQQKQEKSPQLLVFAATNLADGVPSRFSGSGSGTQFSLKINSLQSEDFGTYYCQHFWDTPFTFGSGTKLEIK
B3: TM-30 (antibody, V domains shown)
VH: QVQLQQSGPELVKPGASVKLSCKASDNTFTNYDVNWVRQRPGQGLEWIGWIYPRDGTTIYNEKFKGRATLTVDTSSSTAYMELHSLTSEDSAVFFCARTLPQAMDYWGQGTSVTVSS
VL: DVLMTQSPLSLPVSLGDQVSISCRSSQTIVHRNGNTYLEWYLQKPGQSPKLLIYKVSNRFSGVPDRFSGSGSGTDFTLKISRVEAEDLGVYYCFQGSHLPWTFGGGTKLEIK
B4: TM-54 (antibody, V domains shown)
VH: QVQMQQSGPVLVKPGASVTLSCKASGYTFTTYDLNWVKQRPGQGLEWIGWIYPRGGSTEYNEKFKGKATLTVDTSSSTAYMELHSLTSEDSAVYFCAKYSIYAMDYWGQGTSVTVSS
VL: B3 VL with S7T, V19A, T28S, R32G, L99V, I111M
B5: TM-13 (antibody, V domains shown)
VH: QVQLQQSGAELVKPGASVKMSCKASGYTFTTFPIEWMKQSHGKGLEWIGNFHPYNDDTKYNEKFKGKATLTVDKSSSTVYLDLSRLTSDDSAVYYCARYFYGGMDYWGQGTSVTVSS
VL: DIQMTQSPASLSVSVGETVTITCRASENIYSSLGWYQQKQGESPQLLVFAATNLADGVPSRFSGSGSGTQYSLKINSLQSEDFGTYYCQHLWSIPWTFGGGTRLEIK
B6: TM-84 (antibody, V domains shown)
VH: B5 VH with S40N, G44S, D73E, D82E
VL: B5 VL with Q37H, E42K, I94V, R103K
B7: TM-5 (antibody, V domains shown)
VH: QVQLQQSGTELARPGASVKVSCKASGYIFTTYGITWVKQRGGQGLEWIGEIYPRSDNTYYNEKFKDKATLTADKSSSTAYMELRSLTSEDSAVYFCARSKGSGTGDYWGQGTTVTVSS
VL: DIQMTQSPASLSASVGETVTITCRASENIYIYLAWYQQKQGKTPQLLVYNGKMLAENVPSRFSGSGSGTQFSLKINSLQPEDFGSYYCQHHYGSPPAFGAGTKLELK
B8: TM-80 (antibody, V domains shown)
VH: QVQLQQPGAELVKPGASVKLSCKASGYTFTTFWMHWVKQRPGQGLEWIGNIDPSDSETHYNQEFKDKATLTVDRSSNTAYMQLSSLTSEDSAVYYCARSSNWDNFDYWGQGTAVTVSS
VL: DIVMTQAAPSVPVTPGESVSISCRSSQSLLHVNGHTYLYWFLQRPGQSPQLLIYRMSNLASGVPDRFSGSGSGTVFTLRISRVETEDVGIYYCMQHLQYPFTFGSGTKLEIK
B9: TM-42 (antibody, V domains shown)
VH: QVQLQQSGAELAKPGASVKLSCKASGYTFTNYWMHWVKKRPGQGLEWIGYINPSSGYTKYNQKFKDKATLTADKSSNTAYMQLSSLTYEDSAVYYCTREGGSISDWYFDVWGTGTTVTVSS
VL: B8 VL with V11L, Q27K, V32S, H35N, V75A, T85A, I90V, Q98E, F101Y, S105G
Note: test concentration or dose not given here.

In this assay the target is human TMEM106B (human, UniProt Q9NUM4 2-274). As to the kind of experiment: cell-based or functional assay.
Regarding B1, the “% Protection from CPE” value was 78.5%.

Consider B2, for which the “% Protection from CPE” value was 63.5%.

Regarding B3, the “% Protection from CPE” value was determined as 104%.

As to B4, the “% Protection from CPE” value was found to be 68.1%.

In the case of B5, the “% Protection from CPE” value is 81.8%.

On to B6, for which the “% Protection from CPE” value was 53.1%.

Turning to B7, the “% Protection from CPE” value turned out to be 63.3%.

As to B8, the “% Protection from CPE” value was determined as 78%.

Regarding B9, the “% Protection from CPE” value was 28.4%.
